The values that follow come from publication PMC5360445, “SMOC can act as both an antagonist and an expander of BMP signaling” (eLife, 2017).

In series [1] the target is recombinant mature XSMOC-1 (Xenopus SMOC-1) (Xenopus). The series can be described thus: SEC; XSMOC-1 refolded in the presence of 2 mM CaCl2, then dialysed in the presence of 10.5 mM EDTA.
The target is the same in series [2]. Description: SEC; HiLoad Superdex-200 PG, 20 mM Tris/HCl pH 7.5, 300 mM NaCl, 2 mM CaCl2, 10% glycerol; proteins refolded in the presence of 2 mM CaCl2; molecular weights calculated from elution.
For series [3] the target is unchanged. The series can be described thus: not stated; data not shown; in the presence of 50 mM EDTA and 1 mM nitriloacetic acid.
Series [4] addresses XSMOC-1∆EC (XSMOC-1 lacking the EC domain) (Xenopus). The series can be described thus: SEC; HiLoad Superdex-200 PG, 20 mM Tris/HCl pH 7.5, 300 mM NaCl, 2 mM CaCl2, 10% glycerol; proteins refolded in the presence of 2 mM CaCl2; molecular weights calculated from elution.
Series [5] deals with the molecule itself. Described as above.

With “recombinant mature XSMOC-1 (Xenopus SMOC-1) (natural protein)”, the stoichiometry N in series [1], in series [2] and in series [3] was 2 in each case.
With “XSMOC-1∆EC (XSMOC-1 lacking the EC domain) (domain or fragment)”, the stoichiometry N (usually a count of units in the complex or per binding partner) in series [4] is 2.

B1: human SMOC-1 (natural protein, UniProt Q9H4F8 27-434, looked up)
chain: HRTTGPRFLISDRDPQCNLHCSRTQPKPICASDGRSYESMCEYQRAKCRDPTLGVVHRGRCKDAGQSKCRLERAQALEQAKKPQEAVFVPECGEDGSFTQVQCHTYTGYCWCVTPDGKPISGSSVQNKTPVCSGSVTDKPLSQGNSGRKDDGSKPTPTMETQPVFDGDEITAPTLWIKHLVIKDSKLNNTNIRNSEKVYSCDQERQSALEEAQQNPREGIVIPECAPGGLYKPVQCHQSTGYCWCVLVDTGRPLPGTSTRYVMPSCESDARAKTTEADDPFKDRELPGCPEGKKMEFITSLLDALTTDMVQAINSAAPTGGGRFSEPDPSHTLEERVVHWYFSQLDSNSSNDINKREMKPFKRYVKKKAKPKKCARRFTDYCDLNKDKVISLPELKGCLGVSKEGRLV
notes: human SMOC-1, construct pET28-SMOC-1-HT of Novinec et al., 2008; expected monomeric size 46.6 kDa; probably the protein without its signal peptide; also called hSMOC-1; pET28-SMOC-1-HT
Take B1: the “stoichiometry N” value in series [5] was 2.
